This is an account of results in patent publication US20210403565A1 (BIOATLA, published 2021).

For assay [1], the target named is T1, human CTLA4 expressed on the cell surface of CHO cells (human, UniProt P16410 36-223).
T1 construct: whole, on cells; also called CHO-huCTLA4; huCTLA4
T1 sequence (looked up): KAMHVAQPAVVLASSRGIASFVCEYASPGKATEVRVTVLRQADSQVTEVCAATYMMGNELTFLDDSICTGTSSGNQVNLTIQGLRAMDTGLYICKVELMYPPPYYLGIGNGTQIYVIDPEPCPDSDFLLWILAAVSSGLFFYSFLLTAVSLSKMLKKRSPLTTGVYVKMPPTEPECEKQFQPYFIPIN
Nature of the assay: FACS competition on CHO-huCTLA4: hB7-2 titrated against a fixed concentration of Ipi Analog, bound antibody detected, % competition; pH 6.0 per the text; no plateau reached (about 25 to 45 % at log 3.95), fit marked ~; unit from the axis hB7-2 log[ng/mL].

In assay [2] the target is T1, human CTLA4 expressed on the cell …. Nature of the assay: FACS competition on CHO-huCTLA4: hB7-2 titrated against a fixed concentration of BA-087-08-32, bound antibody detected, % competition; pH 6.0 per the text; no plateau reached (about 25 to 45 % at log 3.95); unit from the axis hB7-2 log[ng/mL].
Assay [3] has the same target. Nature of the assay: FACS competition on CHO-huCTLA4: hB7-2 titrated against a fixed concentration of Ipilimumab, bound antibody detected, % competition; pH 6.0 per the text; no plateau reached (about 25 to 45 % at log 3.95); unit from the axis hB7-2 log[ng/mL].
Assay [4] shares this target. Nature of the assay: FACS competition on CHO-huCTLA4: hB7-2 titrated against a fixed concentration of BA-087-05-19, bound antibody detected, % competition; pH 6.0 per the text; no plateau reached (about 25 to 45 % at log 3.95); unit from the axis hB7-2 log[ng/mL].
The target of assay [5] is T2, recombinant cynomolgus CTLA4 extracellular domain (cynomolgus, UniProt G7PL88 36-161).
T2 construct: extracellular domain; also called cynoCTLA-4; cynoCTLA4
T2 sequence: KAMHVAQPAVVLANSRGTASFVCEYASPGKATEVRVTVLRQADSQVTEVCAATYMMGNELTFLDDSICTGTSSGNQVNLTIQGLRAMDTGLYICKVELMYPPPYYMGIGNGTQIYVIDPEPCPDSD
Nature of the assay: ELISA, immobilised cynoCTLA-4, pH 6.0, Jun. 27, 2017. Background: In an ELISA, binding on a coated surface is turned into a signal by an enzyme label.

Assay [6] has as its target T3, cynomolgus CTLA4 expressed on the cell surface of CHO cells (cynomolgus, UniProt G7PL88 36-223).
T3 construct: whole, on cells; also called CHO-cynoCTLA4
T3 sequence: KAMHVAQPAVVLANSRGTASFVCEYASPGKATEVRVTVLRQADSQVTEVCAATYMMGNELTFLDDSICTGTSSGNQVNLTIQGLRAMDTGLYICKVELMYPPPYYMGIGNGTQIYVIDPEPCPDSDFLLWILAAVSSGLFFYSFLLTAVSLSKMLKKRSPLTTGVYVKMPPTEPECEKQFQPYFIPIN
As to the kind of experiment: FACS, CHO cells expressing cynomolgus CTLA4 (CHO-cynoCTLA-4), pH 7.4, MFI; no unit in the table, unit from the axis Log Antibodies [ng/ml].

The target of assay [7] is T2, recombinant cynomolgus CTLA4 …. Nature of the assay: ELISA, immobilised cynoCTLA-4, pH 6.0, mean +/- SD.
For assay [8] the target is unchanged. Nature of the assay: ELISA, immobilised cynoCTLA-4, pH 6.0, Jun. 19, 2017.
The target in assay [9] is T3, cynomolgus CTLA4 expressed on the cell …. Nature of the assay: FACS on CHO-cynoCTLA4 cells, pH 6.0, mean. The protocol:
The amount of antibodies bound on the cells was quantified using anti-human IgG antibody conjugated to fluorophores. EC₅₀ values at pH 6.0 and 7.4 for binding to cells were calculated using the nonlinear fit (variable slope, four parameters) model built into GraphPad Prism software (version 7.03). The expression levels of human CTLA4 or cynomolgus CTLA4 on the surface of the CHO cells were determined using a BD QuantiBRITE™ PE kit.

The target in assay [10] is T2, recombinant cynomolgus CTLA4 …. Nature of the assay: SPR, cynomolgus CTLA4 ECD immobilised, pH 6.0, equilibrium fit. A general note: Surface plasmon resonance follows binding to a sensor surface in real time, without labels.

As usually defined, the EC50 is the concentration giving half of the maximal effect. One may read the Kd as the concentration at which binding is half-saturated.

B1: hB7-2 (hCD86) (ligand, human, UniProt P42081 24-247, looked up)
chain: APLKIQAYFNETADLPCQFANSQNQSLSELVVFWQDQENLVLNEVYLGKEKFDSVHSKYMGRTSFDSDSWTLRLHNLQIKDKGLYQCIIHHKKPTGMIRIHQMNSELSVLANFSQPEIVPISNITENVYINLTCSSIHGYPEPKKMSVLLRTKNSTIEYDGVMQKSQDNVTELYDVSISLSVSFPDVTSNMTIFCILETDKTRLLSSPFSIELEDPQPPPDHIP
As for B1, the EC50 in [1] is approximately 2450 ng/mL; in assay [2] it was 3.87 µg/mL; in assay [3] it was 7.19 µg/mL; in assay [4], 3.73 µg/mL.

B2: Ipilimumab (antibody, V domains shown)
VH: QVQLVESGGGVVQPGRSLRLSCAASGFTFSSYTMHWVRQAPGKGLEWVTFISYDGNNKYYADSVKGRFTISRDNSKNTLYLQMNSLRAEDTAIYYCARTGWLGPFDYWGQGTLVTVSS
VL: not shown
As to B2, the EC50 came to 0.021 µg/mL in assay [5]; 0.177 µg/mL in assay [6]; 0.0153 µg/mL in assay [7]; 9.66 ng/mL in assay [8]; 0.338 µg/mL in assay [9]. The Kd in assay [10] worked out at 6.58 nM.
